B1: α4826-1816: laminin alpha 4 LG domain recombinant protein (R&D systems) (protein)
chain: QVSMMFDGQSAVEVHSRTSMDDLKAFTSLSLYMKPPVKRPELTETADQFILYLGSKNAKKEYMGLAIKNDNLVYVYNLGTKDVEIPLDSKPVSSWPAYFSIVKIERVGKHGKVFLTVPSLSSTAEEKFIKKGEFSGDDSLLDLDPEDTVFYVGGVPSNFKLPTSLNLPGFVGCLELATLNNDVISLYNFKHIYNMDPSTSVPCARDKLAFTQSRAASYFFDGSGYAVVRDITRRGKFGQVTRFDIEVRTPADNGLILLMVNGSMFFRLEMRNGYLHVFYDFGFSGGPVHLEDTLKKAQINDAKYHEISIIYHNDKKMILVVDRRHVKSMDNEKMKIPFTDIYIGGAPPEILQSRALRAHLPLDINFRGCMKGFQFQKKDFNLLEQTETLGVGYGCPEDSLISRRAYFNGQSFIASIQKISFFDGFEGGFNFRTLQPNGLLFYYASGSDVFSISLDNGTVIMDVKGIKVQSVDKQYNDGLSHFVISSVSPTRYELIVDKSRVGSKNPTKGKIEQTQASEKKFYFGGSPISAQYANFTGCISNAYFTRVDRDVEVEDFQRYTEKVHTSLYECPIESSPLFLLHKKGKNLSKPKASQNKKGGKSKDAPSWDPVALKLPERNTPRNSHCHLSNSPRAIEHAYQYGGTANSRQEFEHLKGDFGAKSQFSIRLRTRSSHGMIFYVSDQEENDFMTLFLAHGRLVYMFNVGHKKLKIRSQEKYNDGLWHDVIFIRERSSGRLVIDGLRVLEESLPPTEATWKIKGPIYLGGVAPGKAVKNVQINSIYSFSGCLSNLQLNGASITSASQTFSVTPCFEGPMETGTYFSTEGGYVVLDESFNIGLKFEIAFEVRPRSSSGTLVHGHSVNGEYLNVHMKNGQVIVKVNNGIRDFSTSVTPKQSLCDGRWHRITVIRDSNVVQLDVDSEVNHVVGPLNPKPIDHREPVFVGGVPESLLTPRLAPSKPFTGCIRHFVIDGHPVSFSKAALVSGAVSINSCPAA
B2: α53026-3482: laminin alpha 5 LG domain recombinant protein (LD BioPharma) (protein)
chain: AIQVFLLGGSRKRVLVRVERATVYSVEQDNDLELADAYYLGGVPPDQLPPSLRRLFPTGGSVRGCVKGIKALGKYVDLKRLNTTGVSAGCTADLLVGRAMTFHGHGFLRLALSNVAPLTGNVYSGFGFHSAQDSALLYYRASPDGLCQVSLQQGRVSLQLLRTEVKTQAGFADGAPHYVAFYSNATGVWLYVDDQLQQMKPHRGPPPELQPQPEGPPRLLLGGLPESGTIYNFSGCISNVFVQRLLGPQRVFDLQQNLGSVNVSTGCAPALQAQTPGLGPRGLQATARKASRRSRQPARHPACMLPPHLRTTRDSYQFGGSLSSHLEFVGILARHRNWPSLSMHVLPRSSRGLLLFTARLRPGSPSLALFLSNGHFVAQMEGLGTRLRAQSRQRSRPGRWHKVSVRWEKNRILLVTDGARAWSQEGPHRQHQGAEHPQPHTLFVGGLPASSHSSKLP

How the values were obtained:
Assay in all cases: GF binding to recombinant laminin LG domain protein and synthesized laminin HBD peptides (ELISA)
Conditions in all cases: plate coated with LG domain protein or peptide, 1 μg/mL GF, vs BSA-coated wells
[1] = target: T1, PDGF-BB (Homo sapiens, UniProt P01127)
T1 construct: All growth factors (GFs) and chemokines were purchased in their mature forms; purchased PeproTech; host or cells: Escherichia coli
T1 sequence (P01127 82-190 limits assumed): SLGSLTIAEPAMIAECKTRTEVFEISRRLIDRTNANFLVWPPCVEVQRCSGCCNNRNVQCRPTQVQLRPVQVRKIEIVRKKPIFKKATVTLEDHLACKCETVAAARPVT
Experimental: (§1) ELISA tests were performed as described above. In brief, ELISA plates were coated with 1 μg/mL of laminin alpha 3 LG domain recombinant protein, laminin alpha 4 LG domain recombinant protein (R&D systems), laminin alpha 5 LG domain recombinant protein (LD BioPharma), or laminin peptide (sequences are described in Table 1, chemically synthesized by Genscript) in PBS for 2 hrs at 37° C. 1 μg/mL of BSA served as non-binding protein control. After blocking with 2% BSA PBS-0.05% Tween 20 (PBS-T) solution, 1 μg/mL of the recombinant human proteins (VEGF-A121, VEGF-A165, PlGF-1, PlGF-2, PDGF-BB or FGF-2) or 10 μg/mL of biotinylated heparin (Sigma-Aldrich) were added. Bound GF was detected with biotinylated antibodies for human VEGF, PlGF, PDGF-BB, or FGF-2 (R&D Systems). The antibodies were detected by streptavidin-HRP (R&D Systems).

[2] = target: T2, VEGF-A165 (Homo sapiens, UniProt P15692)
T2 construct: All growth factors (GFs) and chemokines were purchased in their mature forms; purchased PeproTech; host or cells: Escherichia coli
T2 sequence (P15692 27-191 isoform P15692-4 limits assumed): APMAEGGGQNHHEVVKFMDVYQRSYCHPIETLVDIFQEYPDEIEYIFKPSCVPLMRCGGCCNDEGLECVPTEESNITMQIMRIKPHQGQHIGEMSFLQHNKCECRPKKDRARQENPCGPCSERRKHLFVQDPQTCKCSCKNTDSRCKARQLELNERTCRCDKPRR
Experimental: as §1

[3] = target: FGF-2 (Homo sapiens, UniProt P09038); design: All growth factors (GFs) and chemokines were purchased in their mature forms; purchased PeproTech; host or cells: Escherichia coli
Chain of FGF-2 (P09038 143-288): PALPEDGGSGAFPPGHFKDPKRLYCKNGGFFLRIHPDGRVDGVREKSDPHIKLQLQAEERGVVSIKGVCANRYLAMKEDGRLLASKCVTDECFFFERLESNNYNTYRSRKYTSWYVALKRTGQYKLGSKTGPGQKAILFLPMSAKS
Experimental: as §1

[4] = target: T3, VEGF-A121 (Homo sapiens, UniProt P15692); design: All growth factors (GFs) and chemokines were purchased in their mature forms; purchased PeproTech; host or cells: Escherichia coli
T3 sequence (P15692 27-147 isoform P15692-9 limits assumed): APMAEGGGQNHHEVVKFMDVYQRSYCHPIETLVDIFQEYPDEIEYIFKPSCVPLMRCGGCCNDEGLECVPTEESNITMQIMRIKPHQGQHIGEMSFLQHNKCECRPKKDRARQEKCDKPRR
Experimental: as §1

[5] = target: T4, PlGF-2 (Homo sapiens, UniProt P49763); design: All growth factors (GFs) and chemokines were purchased in their mature forms; purchased PeproTech; host or cells: Escherichia coli
T4 sequence (P49763 19-170 isoform P49763-3 limits assumed): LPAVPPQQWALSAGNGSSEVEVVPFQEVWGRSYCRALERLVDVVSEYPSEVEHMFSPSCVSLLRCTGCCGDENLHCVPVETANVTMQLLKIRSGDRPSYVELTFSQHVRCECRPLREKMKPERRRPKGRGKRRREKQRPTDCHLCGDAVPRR
Experimental: as §1

[6] = target: T5, PlGF-1 (Homo sapiens, UniProt P49763); design: All growth factors (GFs) and chemokines were purchased in their mature forms; purchased PeproTech; host or cells: Escherichia coli
T5 sequence (P49763 19-149 isoform P49763-2 limits assumed): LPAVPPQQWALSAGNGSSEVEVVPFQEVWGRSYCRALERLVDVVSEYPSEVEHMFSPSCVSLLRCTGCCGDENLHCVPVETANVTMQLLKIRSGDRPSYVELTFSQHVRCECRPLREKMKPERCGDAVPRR
Experimental: as §1

| Molecule | binding to PDGF-BB [1] | binding to VEGF-A165 [2] | binding to FGF-2 [3] | binding to VEGF-A121 [4] | binding to PlGF-2 [5] | binding to PlGF-1 [6] |
| --- | --- | --- | --- | --- | --- | --- |
| B1 | bound | bound | bound | did not show any binding | bound | did not show any binding |
| B2 | bound | bound | bound | did not show any binding | bound | did not show any binding |
